From the supplement of paper PMC7125110
± gives the standard error. Fewer inactive variants are shown than the library holds.

B1: glmS ribozyme (parent)
chain: AUAAAAGCGCCAGAACUACAGAAAUGUAGUUGACGAGGAGGAGGUUUAUCGAAUUUUCGGCGGAUGCCUCCAAA

Columns and labels:
Details in all cases: with glucosamine-6-phosphate
glucosamine-6-phosphate [1] = variants of: B1; assay: self-cleavage kobs at 40 uM GlcN6P; higher = faster cleavage; RNA array
Method in brief: (§1)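 Tiles bearing barcoded ribozyme variants, transcribed in situ by E. coli RNA polymerase on sequenced MiSeq chips, were imaged over ~14 h at 37 °C using a hybridised Cy3 probe. Glucosamine-6-phosphate was supplied at 40 μM to 10 mM in HEPES/KCl/Mg(OAc)2 buffer. kobs came from one- or two-exponential decay fits to normalised per-tile medians, and weighted Michaelis–Menten fits then provided kcat and KM.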

glucosamine-6-phosphate [2] = variants of: B1; assay: self-cleavage kobs at 160 uM GlcN6P; higher = faster cleavage; RNA array
Method in brief: as §1

glucosamine-6-phosphate [3] = variants of: B1; assay: self-cleavage kobs at 640 uM GlcN6P; higher = faster cleavage; RNA array
Method in brief: as §1

glucosamine-6-phosphate [4] = variants of: B1; assay: self-cleavage kobs at 2500 uM GlcN6P; higher = faster cleavage; RNA array
Method in brief: as §1

glucosamine-6-phosphate [5] = variants of: B1; assay: self-cleavage kobs at 10000 uM GlcN6P; higher = faster cleavage; RNA array
Method in brief: as §1

Variant: G63A A64C
- self-cleavage kobs at 40 uM GlcN6P (glucosamine-6-phosphate [1]): < 1e-05 s⁻¹
- self-cleavage kobs at 160 uM GlcN6P (glucosamine-6-phosphate [2]): < 1e-05 s⁻¹
- self-cleavage kobs at 640 uM GlcN6P (glucosamine-6-phosphate [3]): < 1e-05 s⁻¹
- self-cleavage kobs at 2500 uM GlcN6P (glucosamine-6-phosphate [4]): < 1e-05 s⁻¹

Variant: A6G A15C A64C
- self-cleavage kobs at 40 uM GlcN6P (glucosamine-6-phosphate [1]): < 1e-05 s⁻¹
- self-cleavage kobs at 2500 uM GlcN6P (glucosamine-6-phosphate [4]): < 1e-05 s⁻¹

Variant: G32A A36C U45C C70U
- self-cleavage kobs at 40 uM GlcN6P (glucosamine-6-phosphate [1]): < 1e-05 s⁻¹
- self-cleavage kobs at 10000 uM GlcN6P (glucosamine-6-phosphate [5]): < 1e-05 s⁻¹

Variant: A33C A42C
- self-cleavage kobs at 40 uM GlcN6P (glucosamine-6-phosphate [1]): < 1e-05 s⁻¹
- self-cleavage kobs at 160 uM GlcN6P (glucosamine-6-phosphate [2]): < 1e-05 s⁻¹
- self-cleavage kobs at 640 uM GlcN6P (glucosamine-6-phosphate [3]): < 1e-05 s⁻¹
- self-cleavage kobs at 10000 uM GlcN6P (glucosamine-6-phosphate [5]): < 1e-05 s⁻¹

Variant: A14C U31G U47G
- self-cleavage kobs at 40 uM GlcN6P (glucosamine-6-phosphate [1]): 0.00012 ± 1.8e-05 s⁻¹
- self-cleavage kobs at 10000 uM GlcN6P (glucosamine-6-phosphate [5]): 0.00313 ± 0.00068 s⁻¹

Variant: A33G A64C
- self-cleavage kobs at 40 uM GlcN6P (glucosamine-6-phosphate [1]): < 1e-05 s⁻¹
- self-cleavage kobs at 160 uM GlcN6P (glucosamine-6-phosphate [2]): < 1e-05 s⁻¹
- self-cleavage kobs at 640 uM GlcN6P (glucosamine-6-phosphate [3]): < 1e-05 s⁻¹
- self-cleavage kobs at 2500 uM GlcN6P (glucosamine-6-phosphate [4]): < 1e-05 s⁻¹
- self-cleavage kobs at 10000 uM GlcN6P (glucosamine-6-phosphate [5]): < 1e-05 s⁻¹

Variant: A6U A33U A36G G38C U46G C61U
- self-cleavage kobs at 40 uM GlcN6P (glucosamine-6-phosphate [1]): < 1e-05 s⁻¹

Variant: C34U G37A
- self-cleavage kobs at 40 uM GlcN6P (glucosamine-6-phosphate [1]): < 1e-05 s⁻¹
- self-cleavage kobs at 2500 uM GlcN6P (glucosamine-6-phosphate [4]): < 1e-05 s⁻¹
- self-cleavage kobs at 10000 uM GlcN6P (glucosamine-6-phosphate [5]): < 1e-05 s⁻¹

Variant: A6G C10A G29U
- self-cleavage kobs at 40 uM GlcN6P (glucosamine-6-phosphate [1]): < 1e-05 s⁻¹

Variant: G43C G63U
- self-cleavage kobs at 40 uM GlcN6P (glucosamine-6-phosphate [1]): < 1e-05 s⁻¹
- self-cleavage kobs at 160 uM GlcN6P (glucosamine-6-phosphate [2]): < 1e-05 s⁻¹
- self-cleavage kobs at 640 uM GlcN6P (glucosamine-6-phosphate [3]): < 1e-05 s⁻¹
- self-cleavage kobs at 2500 uM GlcN6P (glucosamine-6-phosphate [4]): < 1e-05 s⁻¹

Variant: G32A U54G G59A
- self-cleavage kobs at 40 uM GlcN6P (glucosamine-6-phosphate [1]): < 1e-05 s⁻¹

Variant: C10G U47A G60U C61U
- self-cleavage kobs at 40 uM GlcN6P (glucosamine-6-phosphate [1]): < 1e-05 s⁻¹

Variant: U31A U55G
- self-cleavage kobs at 40 uM GlcN6P (glucosamine-6-phosphate [1]): 0.000331 ± 5.6e-05 s⁻¹
- self-cleavage kobs at 160 uM GlcN6P (glucosamine-6-phosphate [2]): 0.000659 ± 9.3e-05 s⁻¹
- self-cleavage kobs at 640 uM GlcN6P (glucosamine-6-phosphate [3]): 0.0036 ± 0.00064 s⁻¹
- self-cleavage kobs at 2500 uM GlcN6P (glucosamine-6-phosphate [4]): 0.00546 ± 0.0012 s⁻¹
- self-cleavage kobs at 10000 uM GlcN6P (glucosamine-6-phosphate [5]): 0.0123 ± 0.0044 s⁻¹

Variant: G32U G35A U57C
- self-cleavage kobs at 40 uM GlcN6P (glucosamine-6-phosphate [1]): < 1e-05 s⁻¹
- self-cleavage kobs at 160 uM GlcN6P (glucosamine-6-phosphate [2]): < 1e-05 s⁻¹

Variant: C10A A52C
- self-cleavage kobs at 40 uM GlcN6P (glucosamine-6-phosphate [1]): < 1e-05 s⁻¹
- self-cleavage kobs at 640 uM GlcN6P (glucosamine-6-phosphate [3]): < 1e-05 s⁻¹
- self-cleavage kobs at 2500 uM GlcN6P (glucosamine-6-phosphate [4]): < 1e-05 s⁻¹
- self-cleavage kobs at 10000 uM GlcN6P (glucosamine-6-phosphate [5]): < 1e-05 s⁻¹

Variant: A6U A33U A64G
- self-cleavage kobs at 40 uM GlcN6P (glucosamine-6-phosphate [1]): < 1e-05 s⁻¹
- self-cleavage kobs at 2500 uM GlcN6P (glucosamine-6-phosphate [4]): < 1e-05 s⁻¹

Variant: A33U C67U C70G
- self-cleavage kobs at 40 uM GlcN6P (glucosamine-6-phosphate [1]): < 1e-05 s⁻¹

Variant: C16U C71U
- self-cleavage kobs at 40 uM GlcN6P (glucosamine-6-phosphate [1]): 0.000761 ± 6.6e-05 s⁻¹
- self-cleavage kobs at 160 uM GlcN6P (glucosamine-6-phosphate [2]): 0.00136 ± 0.00015 s⁻¹
- self-cleavage kobs at 640 uM GlcN6P (glucosamine-6-phosphate [3]): 0.00431 ± 0.00077 s⁻¹
- self-cleavage kobs at 2500 uM GlcN6P (glucosamine-6-phosphate [4]): 0.0356 ± 0.017 s⁻¹
- self-cleavage kobs at 10000 uM GlcN6P (glucosamine-6-phosphate [5]): 0.0301 ± 0.0059 s⁻¹

Variant: C11G C68A
- self-cleavage kobs at 40 uM GlcN6P (glucosamine-6-phosphate [1]): < 1e-05 s⁻¹

Variant: G9A U65C
- self-cleavage kobs at 40 uM GlcN6P (glucosamine-6-phosphate [1]): < 1e-05 s⁻¹
- self-cleavage kobs at 160 uM GlcN6P (glucosamine-6-phosphate [2]): < 1e-05 s⁻¹
- self-cleavage kobs at 640 uM GlcN6P (glucosamine-6-phosphate [3]): < 1e-05 s⁻¹
- self-cleavage kobs at 2500 uM GlcN6P (glucosamine-6-phosphate [4]): < 1e-05 s⁻¹
- self-cleavage kobs at 10000 uM GlcN6P (glucosamine-6-phosphate [5]): < 1e-05 s⁻¹

Variant: U30G U56A G66A
- self-cleavage kobs at 40 uM GlcN6P (glucosamine-6-phosphate [1]): 5.14e-05 ± 1.7e-05 s⁻¹
- self-cleavage kobs at 10000 uM GlcN6P (glucosamine-6-phosphate [5]): 0.00252 ± 0.00061 s⁻¹

Variant: A42G C61G
- self-cleavage kobs at 40 uM GlcN6P (glucosamine-6-phosphate [1]): < 1e-05 s⁻¹
- self-cleavage kobs at 160 uM GlcN6P (glucosamine-6-phosphate [2]): < 1e-05 s⁻¹
- self-cleavage kobs at 640 uM GlcN6P (glucosamine-6-phosphate [3]): < 1e-05 s⁻¹
- self-cleavage kobs at 10000 uM GlcN6P (glucosamine-6-phosphate [5]): < 1e-05 s⁻¹

Variant: C11G G62A
- self-cleavage kobs at 40 uM GlcN6P (glucosamine-6-phosphate [1]): < 1e-05 s⁻¹

Variant: G35A C61G U65G C67A U69G
- self-cleavage kobs at 40 uM GlcN6P (glucosamine-6-phosphate [1]): 6.66e-05 ± 2.3e-05 s⁻¹
